Measurements reported in US20260151494A1.

Columns and labels:
[1] = target: apical domain of CD71 (Screen 3: 'cynomolgus apical domain of human CD71') (cynomolgus (as paragraph 454 words it; ambiguous)); experiment: primary ELISA
[2] = target: apical domain of CD71 (Screen 3: 'cynomolgus apical domain of human CD71') (cynomolgus (as paragraph 454 words it; ambiguous)); experiment: primary ELISA, RLU ratio to HSA

Row | Binder | RLU [1] | Apical domain:HSA [2]
1 | CD71-binding FN3 domain SEQ ID NO: 243 (designed binder) MSLPAPKNLVVSRVTEDSARLSWTAPDAAFDSFFIGYLEPQPPGEAIHLYVPGSERSYDLTGLKPGTEYNVTIQGVKGGEWSAPLSAIFTT | 4.57e+06 RLU | 582
2 | CD71-binding FN3 domain SEQ ID NO: 253 (designed binder) MSLPAPKNLVVSRVTEDSARLSWTAPDAAFDSFDINYWENESGGEAIALFVPGSERSYDLTGLKPGTEYWVSIGGVKGGRFSEPLYARFTT | 5.78e+06 RLU | 530
3 | CD71-binding FN3 domain SEQ ID NO: 245 (designed binder) MSLPAPKNLVVSRVTEDSARLSWTAPDAAFDSFEISYWEHTFNGEAIILFVPGSERSYDLTGLKPGTEYYVTIGGVKGGAWSPPLWAHFTT | 6.07e+06 RLU | 610
4 | CD71-binding FN3 domain SEQ ID NO: 237 (designed binder) MSLPAPKNLVVSRVTEDSARLSWTAPDAAFDSFEIAYFERTWFGEAIVLTVPGSERSYDLTGLKPGTEYWVQIGGVKGGDWSKPLSAIFTT | 5.01e+06 RLU | 672
5 | CD71-binding FN3 domain SEQ ID NO: 247 (designed binder) MSLPAPKNLVVSRVTEDSARLSWTAPDAAFDSFEIGYFENLYLGEAIVLTVPGSERSYDLTGLKPGTEYWVQIGGVKGGEWSAPLSAIFTT | 4.45e+06 RLU | 679
6 | CD71-binding FN3 domain SEQ ID NO: 248 (designed binder) MSLPAPKNLVVSRVTEDSARLSWTAPDAAFDSFEIGYFENLYLGEAIVLTVPGSERSYDLTGLKPGTEYVVFIGGVKGGDFSPPLSAIFTT | 5.12e+06 RLU | 550
7 | CD71-binding FN3 domain SEQ ID NO: 251 (designed binder) MSLPAPKNLVVSRVTEDSARLSWTAPDAAFDSFEIGYFENLYLGEAIVLTVPGSERSYDLTGLKPGTEYWVQIGGVKGGNWSAPLVATFTT | 5.1e+06 RLU | 903
8 | CD71-binding FN3 domain SEQ ID NO: 246 (designed binder) MSLPAPKNLVVSRVTEDSARLSWTAPDAAFDSFEIAYQELSLWGEAIVLTVPGSERSYDLTGLKPGTEYYVHIGGVKGGIWSSPLSAYFTT | 6.18e+06 RLU | 609
9 | CD71-binding FN3 domain SEQ ID NO: 250 (designed binder) MSLPAPKNLVVSRVTEDSARLSWTAPDAAFDSFEIGYFENLYLGEAIVLTVPGSERSYDLTGLKPGTEYWVQIGGVNGGNWSAPLSAIFTT | 5.11e+06 RLU | 211
10 | CD71-binding FN3 domain SEQ ID NO: 242 (designed binder) MSLPAPKNLVVSRVTEDSARLSWTAPDAAFDSFEIGYFENLYLGEAIVLTVPGSERSYDLTGLKPGTKYWVQIGGVKGGNWSAPLSAIFTT | 4.84e+06 RLU | 493
11 | CD71-binding FN3 domain SEQ ID NO: 238 (designed binder) MSLPAPKNLVVSRVTEDSARLSWTAPDAAFDSFEIGYFENDYFGEAIVLTVPGSERSYDLTGLKPGTEYVVFIGGVKGGKWSAPLSAIFTT | 6.39e+06 RLU | 954
12 | CD71-binding FN3 domain SEQ ID NO: 239 (designed binder) MSLPAPKNLVVSRVTEDSARLSWTAPDAAFDSFEIVYQENSAYGEAIVLTVPGSERSYDLTGLKPGTEYWVQIGGVKGGNWSAPLSAIFTT | 5.4e+06 RLU | 442
13 | CD71-binding FN3 domain SEQ ID NO: 249 (designed binder) MSLPAPKNLVVSRVTEDSARLSWTAPDAAFDSFEIGYWENAYRGEAIVLTVPGSERSYDLTGLKPGTEYVVFIGGVKGGVWSVPLSAIFTT | 4.81e+06 RLU | 556
14 | CD71-binding FN3 domain SEQ ID NO: 244 (designed binder) MSLPAPKNLVVSRVTEDSARLSWTAPDAAFDSFEIGYFENLYLGEAIVLTVPGSERSYDLTGLKPGTEYVVFIGGVKGGEYSIPLSAIFTT | 5.23e+06 RLU | 630
15 | CD71-binding FN3 domain SEQ ID NO: 240 (designed binder) MSLPAPKNLVVSRVTEDSARLSWTAPDAAFDSFHIWYFEKANEGEAIPLVVPGSERSYDLTGLKPGTEYDVDIGGVKGGAWSIPLGARFTT | 6.83e+06 RLU | 71
16 | CD71-binding FN3 domain SEQ ID NO: 241 (designed binder) MSLPAPKNLVVSRVTEDSARLSWTAPDAAFDSFMIAYDEFIVWGEAVVLTVPGSERSYDLTGLKPGTEYLVEILGVKGGTISGPLSAIFTT | 6.21e+06 RLU | 324

Other lines, results leading:

Row | RLU [1] | Apical domain:HSA [2] | Binder
17 | 5.16e+06 RLU | 411 | CD71-binding FN3 domain SEQ ID NO: 259 (designed binder) MSLPAPKNLVVSRVTEDSARLSWTAPDAAFDSFYIAYAEPRPDGEAILLEVPGSERSYDLTGLKPGTEYSVLIHGVKGGLLSSPLSATFTT
18 | 4.57e+06 RLU | 714 | CD71-binding FN3 domain SEQ ID NO: 261 (designed binder) MSLPAPKNLVVSRVTEDSARLSWTAPDAAFDSFYIAYAEPRPDGEAILLWVPGSERSYDLTGLKPGTEYSVLIHGVKGGLLSSPLHAYFTT
19 | 6.23e+06 RLU | 549 | CD71-binding FN3 domain SEQ ID NO: 264 (designed binder) MSLPAPKNLVVSRVTEDSARLSWTAPDAAFDSFFIGYLEPQPPGEAIALYVPGSERSYDLTGLKPGTEYNVTIQGVKGGFPSEPLVVHFTT
20 | 7.2e+06 RLU | 562 | CD71-binding FN3 domain SEQ ID NO: 262 (designed binder) MSLPAPKNLVVSRVTEDSARLSWTAPDAAFDSFFIGYLEPQPPGEVIHLFVPGSERSYDLTGLKPGTEYNVTIQGVKGGFPSDPLVASFTT
21 | 6.79e+06 RLU | 302 | CD71-binding FN3 domain SEQ ID NO: 258 (designed binder) MSLPAPKNLVVSRVTEDSARLSWTAPDAAFDSFFIGYLEPQPPGEAIVLGVPGSERSYDLTGLKPGTEYNVTIQGVKGGFPSDPLVASFTT
22 | 5.15e+06 RLU | 687 | CD71-binding FN3 domain SEQ ID NO: 257 (designed binder) MSLPAPKNLVVSHVTEDSARLSWTAPDAAFDSFEIGYWENAYKGEAIVLTVPGSERSYDLTGLKPGTEYVVFIGGVKGGVWSVPLSAIFTT
23 | 5.41e+06 RLU | 131 | CD71-binding FN3 domain SEQ ID NO: 255 (designed binder) MSLPAPKNLVVSRVTEDSARLSWTTPDAAFDSFEIAYFEIAWLGEAIVLTVPGSERSYDLTGLKPGTEYWVQIGGVKGGAYSTPLSAIFTT
24 | 5.11e+06 RLU | 448 | CD71-binding FN3 domain SEQ ID NO: 254 (designed binder) MSLPAPKNLVVSRVTEDSARLSWTAPDAAFDSFEIGYFENLYLGEAIVLWVPGSERSYDLTGLKPGTEYWVQIGGVKGGNWSAPLSAIFTT
25 | 4.92e+06 RLU | 399 | CD71-binding FN3 domain SEQ ID NO: 256 (designed binder) MSLPVPKNLVVSRVTEDSARLSWTAPDAAFDSFEIGYFENLYLGEAIVLTVPGSERSYDLTGLKPGTEYWVQIGGVKGGNWSAPLSAIFTT
26 | 5.51e+06 RLU | 344 | CD71-binding FN3 domain SEQ ID NO: 263 (designed binder) MSLPAPKNLVVSRVTEDSARLSWTAPDAAFDSFEIGYFENLYLGEAIVLTVPGSERSYDLTGLKPGTEYWVQIGGVKGGNWSSPLSAIFTT
